In patent publication US20170240629A1 (Hoffmann-La Roche, published 2017):

Columns and labels:
rabbit IL-1beta = rabbit IL-1beta (rabbit, UniProt P14628 117-268, limits assumed); test: SPR (BIAcore)
human IL-1beta [1] = target: T1, human IL-1beta (human, UniProt P01584 117-269); test: cell-based or functional assay
human IL-1beta [2] = target: T1, human IL-1beta; test: cell-based or functional assay; remark: listed apart in the source
human IL-1beta [3] = target: T1, human IL-1beta; test: cell-based or functional assay; remark: listed apart in the source
murine IL-1beta [4] = target: T2, murine IL-1beta (murine, UniProt P10749 118-269); test: ELISA, murine IL-1beta coated, Example 6
T2 sequence (P10749 118-269 limits assumed): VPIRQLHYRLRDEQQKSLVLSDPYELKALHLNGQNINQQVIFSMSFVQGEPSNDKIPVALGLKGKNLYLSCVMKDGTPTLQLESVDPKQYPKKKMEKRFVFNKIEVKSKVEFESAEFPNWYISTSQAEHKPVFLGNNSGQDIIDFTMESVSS
Protocol: (§1) The binding analysis was carried out using an enzyme-linked immunosorbent assay (ELISA)-based technology. […] The EC₅₀ was calculated with a four parameter logistic model using GraphPad Prism 6.0 software.

cynomolgus IL-1beta [5] = target: T3, cynomolgus IL-1beta (cynomolgus, UniProt P79182 117-268); test: ELISA, cynomolgus IL-1beta coated, Example 5
Protocol: as §1

[6] = target: T4, His-tagged human IL-1beta (human, UniProt P01584 117-269); test: ELISA, His-tagged human IL-1beta coated, Example 4 variant 2
T4 construct: also called human His-tagged IL-1beta protein (Sino Biologics 10139-H07E); not shown: His tag

human IL-1beta [7] = target: T1, human IL-1beta; test: ELISA, human IL-1beta (Peprotech) coated, Example 4 variant 1
Protocol: as §1

murine IL-1beta [8] = target: T2, murine IL-1beta; test: ELISA, murine IL-1beta coated, Example 6; based on MW 150 kDa
Protocol: as §1

human IL-1beta [9] = target: T1, human IL-1beta; test: SPR (BIAcore); antibody captured by anti-Fc, IL-1beta injected
Protocol: (§2) All experiments were performed at 25° C. using HBS-P (10 mM His, 140 mM NaCl, 0.05% Tween 20 pH 7.4) as running and dilution buffer. Anti-human or anti-mouse Fc antibodies were immobilized on a Series S CM5 Sensor Chip (GE Healthcare) using standard amine coupling chemistry. […] The dissociation phase was monitored for 600 sec by washing with running buffer. […] The surface was regenerated by injecting 3 M MgCl2 (for anti-human Fc antibody) or 10 mM Glycine pH 1.5 (for anti-mouse Fc antibody) for 60 sec at a flow rate of 5 μl/min. Bulk refractive index differences were corrected by subtracting the response obtained from a mock surface. Blank injections were subtracted (double referencing). The derived curves were fitted to a 1:1 Langmuir binding model using the BIAevaluation software.

cynomolgus IL-1beta [10] = target: T3, cynomolgus IL-1beta; test: as above
Protocol: as §2

murine IL-1beta [11] = target: T2, murine IL-1beta; test: as above
Protocol: as §2

rat IL-1beta = rat IL-1beta (rat, UniProt Q63264 117-268); test: as above
rat IL-1beta, sequence (Q63264 117-268 limits assumed): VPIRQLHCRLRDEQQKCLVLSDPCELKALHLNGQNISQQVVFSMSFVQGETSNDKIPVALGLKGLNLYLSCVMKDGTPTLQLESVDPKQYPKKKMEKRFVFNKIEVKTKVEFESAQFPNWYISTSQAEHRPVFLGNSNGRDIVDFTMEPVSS
Protocol: as §2

cynomolgus IL-1beta [12] = target: T3, cynomolgus IL-1beta; test: ELISA, cynomolgus IL-1beta coated, Example 5; based on MW 150 kDa
Protocol: as §1

[13] = target: T4, His-tagged human IL-1beta; test: ELISA, His-tagged human IL-1beta coated, Example 4 variant 2; based on MW 150 kDa
Protocol: as §1

human IL-1beta [14] = target: T1, human IL-1beta; test: ELISA, human IL-1beta (Peprotech) coated, Example 4 variant 1; based on MW 150 kDa
Protocol: as §1

human IL-1beta [15] = target: T1, human IL-1beta; test: SPR inhibition; 10 nM human IL-1beta pre-incubated with antibody, injected over immobilised human IL-1RI (competitor)
Protocol: All experiments were performed at 25° C. using HBS-P (10 mM His, 140 mM NaCl, 0.05% Tween 20 pH 7.4) as running and dilution buffer. Human IL-1RI was immobilized on a Series S CM5 Sensor Chip (GE Healthcare) using standard amine coupling chemistry. […] The surface was regenerated by injecting 10 mM NaOH for 60 sec at a flow rate of 5 μl/min. Bulk refractive index differences were corrected by subtracting the response obtained from a mock surface.

[16] = target: T4, His-tagged human IL-1beta; test: competition ELISA, His-tagged IL-1beta coated; competitor Fc-tagged human IL-1 receptor type I (Example 7); based on MW 150 kDa
Protocol: (§3) The IC₅₀ was calculated with a four parameter logistic model using GraphPad Prism 6.0 software.

[17] = target: T4, His-tagged human IL-1beta; test: competition ELISA, His-tagged IL-1beta coated; competitor Fc-tagged human IL-1 receptor type II (Example 8); based on MW 150 kDa
Protocol: as §3

[18] = target: T4, His-tagged human IL-1beta; test: competition ELISA, His-tagged IL-1beta coated; competitor Fc-tagged human IL-1 receptor type I (Example 7); IL-1beta receptor I (example 7)
Protocol: as §3

[19] = target: T4, His-tagged human IL-1beta; test: competition ELISA, His-tagged IL-1beta coated; competitor Fc-tagged human IL-1 receptor type II (Example 8); IL-1beta receptor II (example 8)
Protocol: as §3

rabbit IL-1beta, sequence (P14628 117-268 limits assumed): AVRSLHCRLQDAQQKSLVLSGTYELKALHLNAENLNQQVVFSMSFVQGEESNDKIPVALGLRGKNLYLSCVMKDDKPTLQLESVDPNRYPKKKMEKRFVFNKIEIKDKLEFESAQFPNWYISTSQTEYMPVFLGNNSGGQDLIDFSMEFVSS

B1: IL-1beta-mumAb (antibody, V domains shown)
VH: EVQLQQSGPELEKPGASVKISCKASGYSFTDYNMNWVRQSNGKSLEWIGNIDPYYGGTTYNQKFKDKATLTVDKSSSTAYMQLKSLTSEDSAVYYCAREGSPTRYYVMDYWGQGTSVTVSS
VL: DIQMTQSPASLSASVGETVTITCRASENIYSNLAWYQQKQGKSPQLLVYAATNLADGVPSRFSGSGSGTQFSLKINSLQPEDFGSYYCHHFYNTPWTFGGGTKLEIK
notes: Murine antibody; also called murine anti-human IL-1beta antibody
Kd (rabbit IL-1beta): 1.4 nM | IC50, inhibition of ICAM-1 expression upon IL-1beta stimulation of A549 cells (human IL-1beta [1]): 0.7 nM | IC50, inhibition of ICAM-1 expression upon IL-1beta stimulation of HUVEC cells (human IL-1beta [2]): 16.5 nM | EC50, reduction of IL-6 expression upon IL-1beta stimulation of A549 cells (human IL-1beta [3]): 1.09 nM | EC50 (murine IL-1beta [4]): 0.0231 µg/mL | EC50 (cynomolgus IL-1beta [5]): 0.0213 µg/mL | EC50 [6]: 0.0152 µg/mL | EC50 (human IL-1beta [7]): 0.034 µg/mL | EC50 (murine IL-1beta [8]): 0.154 nM | Kd (human IL-1beta [9]): 0.07 nM | koff (human IL-1beta [9]): 7.5e-05 s⁻¹ | kon (human IL-1beta [9]): 1.12e+06 M⁻¹ s⁻¹ | Kd (cynomolgus IL-1beta [10]): 0.08 nM | koff (cynomolgus IL-1beta [10]): 9.5e-05 s⁻¹ | kon (cynomolgus IL-1beta [10]): 1.15e+06 M⁻¹ s⁻¹ | Kd (murine IL-1beta [11]): 0.49 nM | koff (murine IL-1beta [11]): 0.00122 s⁻¹ | kon (murine IL-1beta [11]): 2.47e+06 M⁻¹ s⁻¹ | Kd (rat IL-1beta): 0.31 nM | koff (rat IL-1beta): 0.000636 s⁻¹ | kon (rat IL-1beta): 2.04e+06 M⁻¹ s⁻¹ | EC50 (cynomolgus IL-1beta [12]): 0.142 nM | EC50 [13]: 0.101 nM | EC50 (human IL-1beta [14]): 0.227 nM | IC50 (human IL-1beta [15]): 2.5 nM | IC50 [16]: 1.54 nM | IC50 [17]: 0.88 nM | IC50 [18]: 0.231 µg/mL | IC50 [19]: 0.132 µg/mL
